From the supplement of paper PMC12667976

B1: library; numbered along this chain (parent)
chain: MATDAALRRLLRLHRTEIAVAVDSAFPLLHALADHDVVPEDKFQETLHLKEKEGCPQAFHALLSWLLTQDSTAILDFWRVLFKDYNLERYGRLQPILDSFPKDVDLSQPRKGRKPPAVPKALVPPPRLPTKRKASEEARAAAPAALTPRGTASPGSQLKAKPPKKPESSAEQQRLPLGNGIQTMSASVQRAVAMSSGDVPGARGAVEGILIQQVFESGGSKKCIQVGGEFYTPSKFEDSGSGKNKARSSSGPKPLVRAKGAQGAAPGGGEARLGQQGSVPAPLALPSDPQLHQKNEDECAVCRDGGELICCDGCPRAFHLACLSPPLREIPSGTWRCSSCLQATVQEVQPRAEEPRPQEPPVETPLPPGLRSAGEEVRGPPGEPLAGMDTTLVYKHLPAPPSAAPLPGLDSSALHPLLCVGPEGQQNLAPGARCGVCGDGTDVLRCTHCAAAFHWRCHFPAGTSRPGTGLRCRSCSGDVTPAPVEGVLAPSPARLAPGPAKDDTASHEPALHRDDLESLLSEHTFDGILQWAIQSMARPAAPFPS

Variants of: B1
Assay: AIRE transcriptional activation functional score (insulin promoter-GFP; nonsense median 0, synonymous median 1) (normalised score); higher = higher AIRE activity (more reporter activation)
Settings: with insulin promoter-GFP reporter in HEK293
Method in brief: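 Using Bxb1 recombinase, codon-optimized NNN-codon libraries for three AIRE regions were inserted into Flp-In T-REx HEK293 landing-pad cells with an insulin core promoter-GFP reporter. After integrants (mCherry+, BFP−) were sorted at day 7 and expanded for 7 days, the top 10% GFP and unselected integrant populations underwent tile-sequencing. Functional scores are wild-type-subtracted enrichments of variants in select over non-select samples. A cutoff of 10 counts per million in non-select applied, and values were rescaled (nonsense median 0, synonymous median 1) and averaged over biological replicates.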

AIRE transcriptional activation functional score: each site, then its substitutions
F543: P 1.13; I 0.17; C 0.138; A 0.367; Y 0.833; W 1.23; T 0.669; R 0.296; E 0.561; L 0.729; V 0.18; D 0.845; Q 0.317; S 0.493; M 0.745; N 0.535; G 0.595
S535: M -0.462; H 0.704; C 0.706; Y -1.02; W 0.301; P 0.472; L 0.146; A 1.1; V 0.00974; R 0.12; G 1.74; I 0.212; T 0.745; F 0.394; N 0.164; K -0.212; Q -0.0138
A540: E 0.617; R 0.119; D 0.625; M 0.694; S 0.988; W 0.41; V 1.11; H 0.844; I 0.978; K 0.195; G 1; Q 0.739; Y 0.912; F 0.417; P 1.07; N 1.02; C 1.37; L 0.964; T 0.867
P542: R 0.209; E 0.426; K 0.249; M 1.3; L 1.07; F 0.923; Q 0.942; W 0.476; I 1.09; C 1.05; S 1.07; D 0.633; G 0.957; V 1.16; A 1.19; H 0.651; Y 1.25; T 0.963; N -0.142
A541: W 0.259; T 0.842; I 1.3; R 0.198; P 0.791; V 1.1; Y 0.977; F 0.75; N 0.974; E 0.858; M 0.557; S 0.717; C 1.43; H 0.976; G 0.847; K 0.252; D 0.469; L 0.957; Q 1.05
R538: T 0.72; K 1.18; I 1.65; A 0.19; S 0.733; M 1.05; W 1.54; G 0.544; L 1.52; N -0.187
Q530: Y 0.438; S 0.546; R -0.0677; P 0.385; E 0.29; M -0.198; I 0.183; K 0.392; V -0.295; W -0.0706; H 1.21; D 0.251; A 0.824; N 1.52; L -0.018; T 1.05; C -0.0453; F -0.0468
P544: Q 0.746; C 0.924; N -0.709; Y 1.65; T 0.985; I 1.16; L 1.19; H 0.559; R 0.52; F 0.586; S 0.867; G 1.38; V 0.842; A 1.28
M536: K -0.0329; G 0.186; V 0.514; L 1.04; H 1; F 1.95; I 1.19; D 0.726; P 0.215; R -0.0464; W 0.508; E 0.588; T 1.15; Y -0.0719; C 1.08; A 0.0376; S 0.272; N 0.506
P539: F 0.224; I 0.0871; A 0.371; K 0.00204; N 0.745; Q 0.339; H 0.373; C 0.233; S 0.85; V 0.434; L -0.0017; R 0.158; G 1.47; Y -0.367; D 0.00758; T 0.931; W 0.719; M 0.297
W531: V -0.0485; S 0.218; F 0.12; Q 0.225; D 0.357; P -0.179; K 0.178; N -0.329; M 0.434; A -0.104; C 0.138; G 0.0105; E -0.39; L 0.702; I 0.285; R -0.126
A532: Y 0.432; Q 0.186; P 0.00951; R 0.215; S 0.141; T 1.21; I 0.447; K -0.0221; C -0.268; V 0.836; F -0.19; D 0.194; N 0.0785; L 1.01; G 0.0621
I533: W 0.193; D 0.569; Q 0.144; M 1.13; R 0.266; G 0.261; N -0.116; Y 0.199; H 0.217; C 0.256; V 0.411; E -0.386; L 0.274; T 0.516; S 0.404
A537: Q 0.813; K 0.346; L 0.0269; T 1.41; R -0.0391; H 0.783; V 0.891; P 0.545; S 1.1; C 0.622; M 0.458; E 0.915; I 0.231; G 0.792
S545: P 0.59; Y 1.35; F 1.04; C 1.3; A -0.21; T 0.998
L529: F 0.323; W 1.39; C 0.595; I 1.17; G -0.203; D -0.829; S -0.21; R 0.121; P -0.359; E -0.369; V 0.905; A -0.089; H -0.499; T 0.261; Y 0.598; M -0.503; Q -0.832; N -0.625
Q534: I -0.04; A 1.7; C 1.08; L 0.314; R 0.171; G 1.08; V 0.135; K 0.887; T 1.76; N 1.8; D -0.117; M 0.598; H 0.807; F 0.205; S 0.372; P 0.0913; Y 0.193
